Experimental findings from patent publication US11248023B2 (NEURACLE SCIENCE CO., LTD., priority 2015, dated 2022) are described below.

Ends that are not written are not given here.

One data set has as its target T1, GALR2 (Homo sapiens, UniProt O43603).
T1 construct: expressed in transfected cells
T1 sequence (O43603 1-387): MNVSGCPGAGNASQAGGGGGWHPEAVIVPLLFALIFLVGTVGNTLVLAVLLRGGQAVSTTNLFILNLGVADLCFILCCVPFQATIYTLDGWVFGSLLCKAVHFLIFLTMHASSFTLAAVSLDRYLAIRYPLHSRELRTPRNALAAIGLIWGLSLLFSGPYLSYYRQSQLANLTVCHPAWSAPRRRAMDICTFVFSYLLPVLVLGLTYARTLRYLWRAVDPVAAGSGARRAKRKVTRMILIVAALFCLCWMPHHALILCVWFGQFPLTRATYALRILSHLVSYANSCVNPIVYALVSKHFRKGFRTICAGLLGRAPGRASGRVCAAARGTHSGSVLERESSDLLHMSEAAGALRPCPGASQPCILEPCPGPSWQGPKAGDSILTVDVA
Briefly: SRE-luc assay in HEK293-Gqi cells expressing GALR2. In kind it is cell-based. As to conditions: SRE-luc, HEK293-Gqi cells; compared with spexin.

A further data set concerns the target T2, GALR3 (Homo sapiens, UniProt O60755).
T2 construct: expressed in transfected cells
T2 sequence (O60755 1-368): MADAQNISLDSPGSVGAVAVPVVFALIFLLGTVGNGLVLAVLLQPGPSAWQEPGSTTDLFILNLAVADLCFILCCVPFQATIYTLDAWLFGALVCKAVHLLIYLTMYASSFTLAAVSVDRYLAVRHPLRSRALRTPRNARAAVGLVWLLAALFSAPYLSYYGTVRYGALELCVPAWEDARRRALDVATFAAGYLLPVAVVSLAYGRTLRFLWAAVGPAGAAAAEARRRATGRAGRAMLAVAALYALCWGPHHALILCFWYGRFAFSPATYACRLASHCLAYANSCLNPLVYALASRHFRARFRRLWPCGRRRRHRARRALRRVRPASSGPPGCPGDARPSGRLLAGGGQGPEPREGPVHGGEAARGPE
Briefly: SRE-luc assay in HEK293-Gqi cells expressing GALR3. As to conditions: compared with spexin. In kind it is cell-based.

Data set [1] is described as follows: Stability in 100% fetal bovine serum, residual potency via IP3 production in GALR2-expressing cells. As to conditions: 37° C.
Protocol: The stability of the spexin-based mutant peptides was investigated. To this end, first, each modified mutant peptide at an initial concentration 10 μM was allowed to react in 100% fetal bovine serum (FBS) at 37° C. for 0, 3, 6, 12, 24, 48, and 72 h. Thereafter, the potencies of the mutant peptide toward GALR2 were determined via inositol 1,4,5-triphosphate (IP3) production in GALR2-expressing cells. For the IP3 assay, cells were seeded in 12-well plates at a density of 2.5×10^5 cells/well and then the next day, cells were treated with a mixture of 1 μg of GALR2-encoding plasmid DNA and Lipofectamine 2000 (Invitrogen). On day following treatment, cells were incubated in M199 media containing 1% FBS, 1% L-glutamine, 1% antibiotic, and myo-^3H inositol 1 μCi/well for 20 h to radioactively label inositol phosphate. After this stage was finished, cells were allowed to react in buffer A (140 mM NaCl, 20 mM Hepes, 4 mM KCl, 8 mM D-glucose, 1 mM MgCl2, 1 mM CaCl2), 1 mg/ml free fatty acid bovine serum albumin, and 10 mM LiCl at pH 7.2) for 30 min. After the mutant peptide was allowed to react in 100% FBS, cells were treated with the mutant peptide for 40 min at 37° C. Media was removed, and reactions were terminated by addition of 1 ml of 10 mM cold formic acid to each well. The plates were allowed to stand at 4° C. for 30 min. Then, the resulting extracts were transferred to 6-mL plastic tubes containing 500 μl AG1-8X anion exchange columns. The tubes were gently mixed with a vortexer, and the supernatants were removed from the labeled mixture. Two washes with 1 ml of triple-distilled water were performed followed by two additional washes with 60 mM ammonium formate/5 mM sodium tetraborate. The radioactively labeled mixture was eluted from the column with 1 ml of 1 M ammonium formate/0.1 M formic acid (1 mL), and 800 μl from the elution were taken from each tube and transferred into scintillation vials. Then, 2 ml of scintillation cocktail solution (Ultima Gold™, Perkin Elmer, Waltham Mass., USA) was added to each sample. The radioactivity of the mixture solution of the radioactively labeled mixture and the scintillation cocktail solution was measured using a TRI carb 2100TR liquid scintillation analyzer (Packard).

Description for GALR3: The HEK293-Gqi stable cell line is a cell line in which the C-terminus of Gq is substituted with 3 amino acids of G to convert the signals of G to Gq signaling pathways. […] GALR subtypes 1 and 3 induce inhibitory G-coupled signaling, while GALR subtype 2 triggers stimulatory Gq-coupled signaling. This difference explains the use of the HEK293-Gqi stable cell line in which the C-terminus of Gq is substituted with 3 amino acids of G to convert the signals of Gi to Gq signaling pathways.
GALR subtypes 1 and 3 induce inhibitory G-coupled signaling, while GALR subtype 2 triggers stimulatory Gq-coupled signaling. This difference explains the use of the HEK293-Gqi stable cell line in which the C-terminus of Gq is substituted with 3 amino acids of G to convert the signals of G to Gq signaling pathways. The activities of the receptors were measured using an SRE-luc assay system designed to express luciferase (luc) by serum responsive element (SRE) promoters. Light caused by a reaction between expressed luciferase and luciferin as a substrate was detected using a luminometer so that receptor subtype-specific or ligand-specific cellular activities were observed. One day after HEK293-Gqi cells were seeded in 48-well plates at a density of 2×10^4 cells/well, plasmid DNA and SRE-luc plasmid DNA, which encode GALR2 and GALR3, respectively, were mixed in a ratio of 1:1 (75 ng+75 ng)/well, and treated with Effectene reagent (2 μl/well). After 3 h, media were replaced with DMEM media supplemented with 10% FBS. After 24 h, the DMEM media were replaced with FBS-free DMEM media. After 16 h, each constructed spexin-based mutant peptide was further incubated at 37° C. for 6 h. After this stage was finished, cells were washed with PBS and lysed by the addition of 100 μl of lysis buffer (0.1% triton X-100, 0.2M Tris, pH 8.0) at room temperature for 20 min. The luciferase activity was determined using a synergy 2 Multi-mode microplate reader (BioTek, Winooski, Vt., USA) with automatic injection of a luciferin solution (0.5 M MgCl2, 0.1 M ATP, 0.05 M D-luciferin, 1 M KH2PO4, pH 7.8).

For `NC(=O)NCCC[C@H](N)C(=O)O` [Cit], the “potency toward GALR2” value on GALR2 is “no influence”. On GALR3, the “potency toward GALR3” value is on record as “no influence”.

In the case of `CSCC[C@H](NC(=O)[C@H](C)NC(=O)[C@H](CCC(N)=O)NC(=O)[C@@H]1CCCN1C(=O)[C@@H](NC(=O)[C@H](Cc1c[nH]c2ccccc12)NC(=O)[C@@H](N)CC(N)=O)[C@@H](C)O)C(=O)N[C@@H](CC(C)C)C(=O)N[C@@H](Cc1ccc(O)cc1)C(=O)N[C@@H](CC(C)C)C(=O)N[C@@H](CCCCN)C(=O)NCC(=O)N[C@@H](C)C(=O)N[C@@H](CCC(N)=O)C(N)=O` [spexin, reference compound], in data set [1] (100% FBS, initial 10 μM, within 12 h), the “potency toward GALR2 (IP3 production) remaining after reaction in serum” value is not above 80%. On to “Fmoc: spexin modified with Fmoc at position 1, SEQ ID NO: 45”, for which, in the data set with GALR2, the “potency toward GALR2” value is on record as “no influence”. In addition, in the data set with GALR3, the “potency toward GALR3” value was “no influence”. For “NWTPNAALYLFGPQ-NH2 (C-terminus assumed) [Qu]”, in data set [1] (0-72 h, IP3 production in GALR2-expressing cells), the “stability in serum (100% FBS)” value is on record as “rapidly degraded compared to the wild-type spexin”. On to “[Asn^5]: spexin-based single mutant peptide, asparagine at position 5, SEQ ID NO: 23 (NWTPNAMLYLKGAQ; [N5]-SPX)”, for which, in the data set with GALR2, the “potency toward GALR2” value was “maintained its potency toward GALR2 without a substantial difference”. In addition, the “potency toward GALR3” value in the data set with GALR3 is reported as “decreased potency toward GALR3”.

Take “[Gly^8]: spexin-based mutant peptide, leucine at position 8 replaced with glycine, SEQ ID NO: 26 (NWTPQAMGYLKGAQ; [G8]-SPX)”: the “potency toward GALR2” value in the data set with GALR2 is “decreased potencies”. In the data set with GALR3, the “potency toward GALR3” value is on record as “decreased potencies”.

For “[Gly′]: spexin-based mutant peptide, Asn1 replaced with glycine, SEQ ID NO: 12 (GWTPQAMLYLKGAQ; [G1]-SPX)”, the “potency toward GALR2” value with GALR2 is recorded as “maintained their potencies toward both receptors without differences from those of spexin”. Further, in the data set with GALR3, the “potency toward GALR3” value is “maintained their potencies toward both receptors without differences from those of spexin”. As for “[Leu^4]: spexin-based mutant peptide, leucine at position 4, SEQ ID NO: 20 (NWTLQAMLYLKGAQ; [L4]-SPX)”, the “potency toward GALR2” value with GALR2 was “maintained their potencies toward both receptors without differences from those of spexin”. In the data set with GALR3, the “potency toward GALR3” value is recorded as “maintained their potencies toward both receptors without differences from those of spexin”. On to “[Leu^11]: spexin-based mutant peptide, leucine at position 11, SEQ ID NO: 32 (NWTPQAMLYLLGAQ; [L11]-SPX)”, for which the “potency toward GALR3” value with GALR3 is recorded as “decreased potency toward GALR3”. With “[Phe^11]: spexin-based mutant peptide, phenylalanine at position 11, SEQ ID NO: 31 (NWTPQAMLYLFGAQ; [F11]-SPX)”, in the data set with GALR2, the “potency toward GALR2” value is on record as “maintained its potency toward GALR2 without a substantial difference”. Moreover, the “potency toward GALR3” value with GALR3 is “decreased potency toward GALR3”. Take “[Pro^13]: spexin-based mutant peptide, proline at position 13, SEQ ID NO: 39 (NWTPQAMLYLKGPQ; [P13]-SPX)”: in the data set with GALR2, the “potency toward GALR2” value is “maintained its potency toward GALR2 without a substantial difference”. The “potency toward GALR3” value with GALR3 was “decreased potency toward GALR3”. The matching figures for “[dN^1]: spexin-based mutant peptide, Asn1 replaced with D-amino acid, SEQ ID NO: 9”: “slightly increased the potency” and “slightly increased the potency”. Turning to alanine, the “potency toward GALR2” value at GALR2 is “maintained its potency toward GALR2 without a substantial difference”. In addition, on GALR3, the “potency toward GALR3” value is “decreased potency toward GALR3”.

Regarding “pQ: spexin with Asn1 replaced with pyroglutamate, SEQ ID NO: 10”, in the data set with GALR2, the “potency toward GALR2” value is “no influence”. In the data set with GALR3, the “potency toward GALR3” value is reported as “no influence”.
